Reference: patent US12012457 (SYNTHEKINE, dated 2024)

T1: extracellular domain of mouse IL23R (mIL23R ECD) (mouse, UniProt Q8K4B4 24-374)
T1 construct: also called mIL-23 ECD antigen
T1 sequence: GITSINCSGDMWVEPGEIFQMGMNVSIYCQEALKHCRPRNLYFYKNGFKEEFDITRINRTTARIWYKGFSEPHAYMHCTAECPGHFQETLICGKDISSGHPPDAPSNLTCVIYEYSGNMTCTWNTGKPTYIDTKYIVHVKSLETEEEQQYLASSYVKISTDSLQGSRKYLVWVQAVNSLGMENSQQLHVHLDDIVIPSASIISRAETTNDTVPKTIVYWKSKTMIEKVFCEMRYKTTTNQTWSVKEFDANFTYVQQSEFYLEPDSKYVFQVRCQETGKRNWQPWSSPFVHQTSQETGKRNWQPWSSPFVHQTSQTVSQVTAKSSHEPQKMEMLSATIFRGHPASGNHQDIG


biological target: T1, extracellular domain of mouse IL23R …; experiment: periplasmic extract ELISA (PE-ELISA), 96-well plate, colorimetric

| Binder | binding result |
| --- | --- |
| mIL23R VHH12 (VHH) VHH: QVQLQESGGGSVQAGGSLRLSCAASGYTYSSCTMGWYRQAPGKERELVSMLISDGSTFYADSVKGRFTFSQENAKNTVYLQMNSLKPEDTAMYYCGCATLGSRTVWGQGTQVTVSS | binds |
| mIL23R VHH1 (VHH) VHH: QVQLQESGGGSVQAGGSLRLSCAASGYTYSSCTMGWYRQAPGKERELVSMLISDGSTFYADSVKGRFTFSQEYAKNTVYLQMNSLKPEDTAMYYCGCATLGSRTVWGQGTQVTVSS | binds |
| mIL23R VHH8 (VHH) VHH: QVQLQESGGGSVQAGGSLRLSCTASRYTYSSCTMGWYRQAPGKERELVSMVFSDGSTFYADSVKGRFTFSQENAKNTVYLQMNSLKPEDTAMYYCGCATLGSRTIWGQGTQVTVSS | binds |
| mIL23R VHH10 (VHH) VHH: QVQLQESGGGSVQAGGSLRLSCAASGDTYSSCTMGWYRQAPGKERDLVSMLMGDGSTFYADSVKGRFTFSQENAKNTVYLQMNSLKPEDTAMYYCGCATLGSRTIWGQGTQVTVSS | binds |
| mIL23R VHH11 (VHH) VHH: QVQLQESGGGSVQAGGSLRLSCAASGYTYSSCTMGWYRQAPGKERELVSMLISDGSTFYADSVKGRFTFSQENAKSTVYLQMNSLKPEDTAMYYCGCATLGSRTVWGQGTQVTVSS | binds |
| mIL23R VHH15 (VHH) VHH: QVQLQESGGGSVQAGGSLRLSCAASGYTYSSCTMGWYRQAPGKERELVSMVFSDGSTFYADSVKGRFTFSQENAKNTVYLQMNSLKPEDTAMYYCGCATLGSRTIWGQGTQVTVSS | binds |
| mIL23R VHH16 (VHH) VHH: QVQLQESGGGSVQAGGSLRLSCAASGDTYSSCTMGWYRQAPGKERDLVSMLMGDGSTFYADSVKGRFTFSQENAKNTVYLQMNNLKPEDTAMYYCGCATLGSRTIWGQGTQVTVSS | binds |
| mIL23R VHH25 (VHH) VHH: QVQLQESGGGSVQAGGSLRLSCAASGYTYSSCTMGWYRQAPGKERELVSMLISDGSTFYADSVKGRFTFSQENAKNTVYLQMNSLKPEDTAMYFCGCATLGSRTVWGQGTQVTVSS | binds |
| mIL23R VHH27 (VHH) VHH: QVQLQESGGGSVQAGGSLRLSCAASGYTYSSCTMGWYRQAPGKERELVSMLISDGSTFYADSVKGRFTSSQENAKNTVYLQMNSLKPEDTAMYYCGCATLGSRTVWGQGTQVTVSS | binds |
| mIL23R VHH36 (VHH) VHH: QVQLQESGGGSVQAGGSLRLSCAASGDTYSSCTMGWYRQAPGKERDLVSMVFSDGSTFYADSVKGRFTFSQENAKNTVYLQMNSLKPEDTAMYYCGCATLGSRTIWGQGTQVTVSS | binds |
| mIL23R VHH18 (VHH) VHH: QVQLQESGGGLVQPGGSLRLSCAASGFTFRLTAMRWVRQAPGKGLEWVSGIDSRGSTIYADSVKGRFTISKDNAKNTLYLQLNSLKTEDTAMYYCAQGVYGDTYSGSQGTQVTVSS | binds |
| mIL23R VHH2 (VHH) VHH: QVQLQESGGGSVQAGGSLTLSCTAPGFTFRLAAMRWVRQAPGKGLEWVSGIDSRGSTIYADSVKGRFTISKDNAKNTLYLQLNSLKTEDTAMYYCAQGVYGDTYSGSQGTQVTVSS | binds |
| mIL23R VHH9 (VHH) VHH: QVQLQESGGGLVQPGGSLRLSCATSGFTFRLTAMRWVRQAPGKGVEWVSGIDSAGSTIYADSVKGRFTISKDNAKNTLYLQMNSLKTEDTAMYYCAQGVYGDTYSGSQGTQVTVSS | binds |
| mIL23R VHH13 (VHH) VHH: QVQLQESGGGLVQPGGSLRLSCATSGFTFRLAAMRWVRQAPGKGLEWVSGIDSRGSTIYADSVKGRFTISKDNAKNTLYLQLNSLKTEDTAMYYCAQGVYGDTYSGSQGTQVTVSS | binds |
| mIL23R VHH17 (VHH) VHH: QVQLQESGGGSVQAGGSLRLSCAASGFTFRLTAMRWVRQAPGKGLEWVSGIDSRGSTIYADSVKGRFTISKDNAKNTLYLQLNSLKTEDTAMYYCAQGVYGDTYSGSQGTQVTVSS | binds |
| mIL23R VHH19 (VHH) VHH: QVQLQESGGGLVQPGGSLRLSCAASGFTFRLSAMRWVRQAPGKGLEWVSGIDSRGSTIYADSVKGRFTISKDNAKNTLYLQLNSLKTEDTAMYYCAQGVYGDTYSGSQGTQVTVSS | binds |
| mIL23R VHH23 (VHH) VHH: QVQLQESGGGLVQPGGSLRLSCAASGFNFRLYAMRWVRQAPGKGVEWVSGIDSGGSTIYADSVKGRFTISKDNAKNTLYLQLNSLKTEDTAMYYCAQGVYGDTYSGSQGTQVTVSS | binds |
| mIL23R VHH28 (VHH) VHH: QVQLQESGGGLVQPGGSLRLSCAASGFTFRLTAMRWVRQAPGKGLEWVSGIDSRGSTIYADSVKGRFTISRDNAKNTLYLQLNSLKTEDAAMYYCAQGVYGDTYSGSQGTQVTVSS | binds |
| mIL23R VHH30 (VHH) VHH: QVQLQESGGGLVQPGGSLRLSCAASGFTFRLTAMRWVRQAPGKGLEWVSGIDSRGSTIYADSVKGRFTISKDNAKNTLYLQLNSLKTEDTAMYYCAQGVYGDTYSGSLGTQVTVSS | binds |
| mIL23R VHH31 (VHH) VHH: QVQLQESGGGLVQPGGSLRLSCAASGFTFRLTAMRWVRQAPGKGLEWVSGIDSRGSTIYADSVKGRFTISRDNAKNTLYLQLNSLKTEDTAMYYCAQGVYGDTYSGSQGTQVTVSS | binds |
| mIL23R VHH34 (VHH) VHH: QVQLQESGGGLVQPGGSLRLSCAASGFTFRLTAMRWVRQAPGKGLEWVSGIDSRGSTIYADSVKGRFTISKDNAKNTLYLQLNSLKTEDTAMYYCAQGVYGDTHSGSQGTQVTVSS | binds |
| mIL23R VHH40 (VHH) VHH: QVQLQESGGGLVQPGGSLRLSCAASGFTFRLTAMRWVRQAPGKGLEWVSGIDSRGSTIYADSVKGRFTISKDNAKNTLYLQLNSLKSEDTAMYYCAQGVYGDTYSGSQGTQVTVSS | binds |
| mIL23R VHH42 (VHH) VHH: QVQLQESGGGLVQPGGSLRLSCAASGFTFSNYAMRWVRQAPGKGLEWVSGIDSRGSTIYADSVKGRFTISKDNAKNTLYLQLNSLKTEDTAMYYCAQGVYGDTYSGSQGTQVTVSS | binds |
| mIL23R VHH44 (VHH) VHH: QVQLQESGGGLVQPGGSLRLSCAASGFTFRLSAMRWVRQAPGKGFEWVSGIDSRGSTIYADSVKGRFTISKDNAKNTLYLQLNSLKTEDTAMYYCAQGVYGDTYSGSQGTQVTVSS | binds |
| mIL23R VHH45 (VHH) VHH: QVQLQESGGGLVQPGGSLRLSCAASGFTFRLSAMRWVRQAPGKGLEWVSGIDSRGSTIYADSVEGRFTISKDNAKNTLYLQLNSLKTEDTAMYYCAQGVYGDTYSGSQGTQVTVSS | binds |
